Laboratory results from patent publication US20230272024A1, “FIBROBLAST GROWTH FACTOR 7 PEPTIDE” (University of Florida Research Foundation, Incorporated, priority 2020, published 2023).
Entries after “also recorded” stand apart in the source; their conditions may differ.

Columns and labels:
Format in all cases: in vivo, mice
FGFR2IIIb [1] = target: T1, FGFR2IIIb (Mus musculus, UniProt P21803); experiment: pFRS2α immunostaining of bladder urothelium after subcutaneous ligand; settings: for onset of pFRS2α staining (initial staining observed) after administration: mouse, in vivo
T1 construct: from tissue; host or cells: bladder urothelium of FVB/N mice (in vivo)
Method: (§1) Uninjured mice were treated with 0.2 mL of 10% DMSO, 40 mg/kg FGF7-p, or […] full length FGF7 (n=2 mice per group, mice were about 25 g in weight) administered by subcutaneous injection. At the indicated times (Tables 1 and 2, FIGS. 1 and 2) bladders were harvested and immunostained for pFRS2α and pAKT, markers of urothelial protection. Immunostaining of bladder tissues from each group was repeated. Tables 1, 3, and 4 show the staining pattern for pFRS2α and pAKT over time in mice treated with full length FGF7.
(§2) After FGF7 binds to FGFR2IIIb, pFRSα appears first followed by pAKT. Activation of pAKT correlates with the anti-apoptotic/cytoprotective effects of FGF7 in the bladder urothelium.
(§3) Mice treated with DMSO control, full length FGF7, or FGF7-p were analyzed for activation of FGFR2IIIb and pAKT. Phosphorylated FRS2α and AKT levels were examined by immunostaining. After administration of full length FGF7, initial pFRS2α staining was observed as early as 15 hours later and pAKT staining was observed by 30 hours and peaked at 48 hours (see Tables 1-4 above). 48 hours after administration of 20 mg/kg or 40 mg/kg FGF7-p samples, strong FRS2α staining was observed.

FGFR2IIIb [2] = target: T1, FGFR2IIIb; experiment: pAKT immunostaining of bladder urothelium after subcutaneous ligand; settings: for pAKT staining: uninjured mice, full length FGF7 5 mg/kg, FGF7-p 40 mg/kg
Method: as §1, §2, §3
To assess whether pATK expression was also increase in FGF7-p treated mice, bladders were analyzed for pATK staining at 72 hours. To confirm pAKT staining was robust in bladder of FGF7-p of treated mice at 72 hours, additional staining for DMSO and FGF7-p (40 mg/kg) treated animals at 72 hours and staining on old samples from full length FGF7-treated samples (5 mg/kg) at 30 hours, 48 hours and 96 hours (n=2 mice per group) was performed. […] Further, robust pAKT signal was seen throughout the urothelium.

bladder urothelium [3] = experiment: cyclophosphamide-induced urothelial injury and apoptosis (H&E, TUNEL)
Method: FVB/N mice were administered subcutaneous doses 5 mg/kg, 20 mg/kg, 40 mg/kg of FGF7-p, 5 mg/kg of full length FGF7, or 10% DMSO alone (vehicle). After 24 hours, 150 mg/kg of cyclophosphamide was administered to the mice. Mice were the sacrificed and bladder tissues examined for signs of urothelial injury at various times.
(§4) Mice were administered two doses of 20 mg/kg of subcutaneous (SQ) FGF7-p (or 10% DMSO vehicle) at 72 hours and 48 hours prior to intraperitoneal (IP) injection of 150 mg/kg cyclophosphamide (n=3 female mice per group). Mice were sacrificed and bladders were harvested 24 hours after cyclophosphamide injection. The bladders were fixed in 4% paraformaldehyde in phosphate buffered saline and embedded in paraffin. The paraffin embedded bladders were then serially sectioned with a microtome. Hematoxylin and eosin staining was performed on the sections.

pAKT = pAKT immunostaining of urothelium after cyclophosphamide; settings: two SC doses of 20 mg/kg at 72 and 48 hours prior to cyclophosphamide, 24 hours after cyclophosphamide
pS6 = experiment: phosphorylated p70S6 kinase (pS6) immunostaining of urothelium after cyclophosphamide; settings: two SC doses of 20 mg/kg at 72 and 48 hours prior to cyclophosphamide; 24 hours after cyclophosphamide; versus DMSO
pBAD = experiment: phosphorylated BAD (pBAD) immunostaining of urothelium after cyclophosphamide; settings: two SC doses of 20 mg/kg at 72 and 48 hours prior to cyclophosphamide, 24 hours after cyclophosphamide
Method: as §4

bladder urothelium [4] = experiment: radiation-induced bladder urothelial apoptosis (TUNEL); settings: two doses 20 mg/kg SQ at 72 and 48 hours prior to 10 Gray radiation, one day later
Method: The ability of FGF7p to inhibit radiation injury as assesses. Two doses of FGF7p (20 mg/kg SQ) or 2.5% DMSO/PBS vehicle was administered to anesthetized female mice (N=2) at 72 hours and 48 hours prior to exposing the mice to 10 Gray (1000 rads) radiation. Instead of directly exposing bladders to irradiation, we transurethrally filled bladders with 300 μL of saline and focused the radiation beam over the bladder bulge on the depilated abdominal wall. One day later, we noted many TUNEL+ urothelial apoptotic cells in the vehicle-treated mice (FIG. 4, left panel). […] Thus, similar to KGF, systemic FGF7p inhibited or blocked radiation-induced apoptosis.

[5] = two SC doses of 20 mg/kg at 72 and 48 hours prior to IP 150 mg/kg cyclophosphamide, 24 hours after cyclophosphamide

T1 sequence (P21803 22-707 isoform P21803-2 limits assumed): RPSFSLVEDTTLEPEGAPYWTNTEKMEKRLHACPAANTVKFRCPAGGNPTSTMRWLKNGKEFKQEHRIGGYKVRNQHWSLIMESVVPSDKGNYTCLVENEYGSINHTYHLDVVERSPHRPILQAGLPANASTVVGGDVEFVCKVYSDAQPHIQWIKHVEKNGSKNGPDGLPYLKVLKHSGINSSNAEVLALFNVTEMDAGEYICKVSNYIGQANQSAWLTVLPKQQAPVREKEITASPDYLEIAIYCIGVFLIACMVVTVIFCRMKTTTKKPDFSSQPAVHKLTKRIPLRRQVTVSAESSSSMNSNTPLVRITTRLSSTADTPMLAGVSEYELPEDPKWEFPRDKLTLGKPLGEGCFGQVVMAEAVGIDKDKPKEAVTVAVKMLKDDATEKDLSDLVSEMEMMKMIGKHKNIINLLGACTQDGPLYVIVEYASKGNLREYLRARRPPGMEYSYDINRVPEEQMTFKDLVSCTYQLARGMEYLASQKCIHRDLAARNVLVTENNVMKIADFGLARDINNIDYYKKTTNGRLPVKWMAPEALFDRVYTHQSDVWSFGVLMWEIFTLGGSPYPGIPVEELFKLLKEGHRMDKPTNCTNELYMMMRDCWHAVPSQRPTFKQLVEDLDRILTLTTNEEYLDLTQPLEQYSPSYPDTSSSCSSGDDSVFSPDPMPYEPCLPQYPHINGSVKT

pFRS2α staining (FGFR2IIIb [1]; 48 hours after administration of 5 mg/kg) | pFRS2α staining (FGFR2IIIb [1]; 48 hours after administration of 20 mg/kg) | onset of pFRS2α staining (initial staining observed) after administration (FGFR2IIIb [1]) | pS6 urothelial staining (pS6) | pAKT staining first observed after administration (FGFR2IIIb [2]; mouse, in vivo) | peak of pAKT staining after administration (FGFR2IIIb [2]; mouse, in vivo) | Molecule | pFRS2α staining (FGFR2IIIb [1]; 24 h after SC dose, uninjured mice, full length FGF7 5 mg/kg, FGF7-p 40 mg/kg) | pAKT staining (FGFR2IIIb [2]; 24 h after SC dose) | pAKT staining (FGFR2IIIb [2]; 48 h after SC dose) | pAKT staining (FGFR2IIIb [2]; 72 h after SC dose) | protection against urothelial apoptosis (bladder urothelium [3]; single SC dose 5, 20 or 40 mg/kg 24 hours before 150 mg/kg cyclophosphamide, at 48 hours, versus DMSO alone) | urothelial apoptosis, TUNEL staining (bladder urothelium [3]; [5]) | urothelial injury, hematoxylin and eosin staining (bladder urothelium [3]; [5]) | pAKT urothelial staining (pAKT) | pBAD urothelial staining (pBAD) | radiation-induced urothelial apoptosis, TUNEL staining (bladder urothelium [4])
Less, but still significant | strong | delayed | much stronger staining |  |  | YASAKWTHNGGEMFVALNQ (listed as Homo sapiens) [FGF7-p, chemically synthesized 19 amino acid peptide of FGF7, FGFR2IIIb agonist] | weak and patchy; also recorded: Light/patchy (similar to control) | absent | absent | robust | no signs of protection against urothelial apoptosis | intact and non-apoptotic urothelial cells | almost no urothelial injury | strong signal throughout the urothelium | strong staining | many regions with almost no (middle panel) or minimal urothelial apoptosis
 |  | ≤ 15 hours |  | ≤ 30 hours | 48 hours | full length FGF7: Fibroblast growth factor 7 (keratinocyte growth factor), full length ligand for FGFR2 IIIb isoform, used as comparator (protein) CNDMTPEQMATNVNCSSPERHTRSYDYMEGGDIRVRRLFCRTQWYLRIDKRGKVKGTQEMKNNYNIMEIRTVAVGIVAIKGVESEFYLAMNKEGKLYAKKECNEDCNFKELILENHYNTYASAKWTHNGGEMFVALNQKGIPVRGKKTKKEQKTAHFLPMAIT |  |  |  |  |  |  |  |  |  | 
